This note sets out measurements from US20260085338.

The target of this data set is T7 RNA polymerase, P00573.
Sequence of T7 RNA polymerase, P00573 (P00573 whole entry): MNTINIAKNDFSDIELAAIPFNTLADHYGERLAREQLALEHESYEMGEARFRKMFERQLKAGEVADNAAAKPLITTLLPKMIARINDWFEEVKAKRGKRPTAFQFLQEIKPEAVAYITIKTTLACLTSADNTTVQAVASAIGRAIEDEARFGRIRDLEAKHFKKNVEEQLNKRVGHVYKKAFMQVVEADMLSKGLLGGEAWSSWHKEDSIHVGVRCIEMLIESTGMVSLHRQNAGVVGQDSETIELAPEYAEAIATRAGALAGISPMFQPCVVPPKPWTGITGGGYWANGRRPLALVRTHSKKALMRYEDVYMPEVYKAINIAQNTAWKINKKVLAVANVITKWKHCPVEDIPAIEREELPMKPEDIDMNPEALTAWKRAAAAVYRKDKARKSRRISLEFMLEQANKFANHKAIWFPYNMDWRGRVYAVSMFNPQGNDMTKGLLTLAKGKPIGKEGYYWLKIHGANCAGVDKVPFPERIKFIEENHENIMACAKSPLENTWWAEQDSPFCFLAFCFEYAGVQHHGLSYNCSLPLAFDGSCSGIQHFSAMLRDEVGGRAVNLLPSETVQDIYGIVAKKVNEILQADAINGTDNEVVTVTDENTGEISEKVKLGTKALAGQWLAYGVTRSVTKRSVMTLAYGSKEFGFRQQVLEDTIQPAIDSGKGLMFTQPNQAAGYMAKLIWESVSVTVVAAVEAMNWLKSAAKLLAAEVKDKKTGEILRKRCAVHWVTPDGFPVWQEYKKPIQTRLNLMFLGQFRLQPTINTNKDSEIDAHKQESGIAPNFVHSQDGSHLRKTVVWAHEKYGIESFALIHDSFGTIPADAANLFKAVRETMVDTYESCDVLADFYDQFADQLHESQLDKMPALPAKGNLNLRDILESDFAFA

B1: T7 lysozyme (protein)
chain: MARVQFKQRESTDAIFVHCSATKPSQNVGVREIRQWHKEQGWLDVGYHFIIKRDGTVEAGRDEMAVGSHAKGYNHNSIGVCLVGGIDDKGKFDANFTPAQMQSLRSLLVTLLAKYEGAVLRAHHEVAPKACPSFDLKRWWEKNELVTSDRG
As to B1, the “reduction of msfGFP output upon lysozyme induction (P. putida, 4 mM Rha)” value was “T7 (-79%)”.
